From US20240342244A1, “Isthmin Protein Therapeutics for the Treatment of Non-Alcoholic Fatty Liver Disease” (The Board of Trustees of the Leland Stanford Junior …, priority 2021, published 2024)

Tests used:
[1] = test system: pAKT^S473; assay: pAKT S473 signaling in 3T3-F442A cells (phosphokinase array, western blot); assay type: cell-based
Method: (§1) Western blots and molecular analyses. For western blotting, homogenized tissues or whole-cell lysates, samples were lysed in RIPA buffer containing protease inhibitor cocktail (Roche) and phosphatase inhibitor cocktail (Roche). Cell lysates were centrifuged at 14,000×g for 15 min and supernatants were prepared in 4×LDS Sample Buffer (Invitrogen) and separated by SDS-PAGE and transferred to Immobilon 0.45 μm membranes (Millipore). For Western blotting of plasma samples, 1 μl of plasma was prepared in 2× sample buffer (Invitrogen) with reducing agent, boiled, and analyzed using Western blot against indicated antibody. Protein kinase array (R&D systems ARY003B) was performed according to the manufacturers' description. All antibodies used in this paper are described in STAR methods.

[2] = test system: pTyr; assay: Western blot of pTyr levels; assay type: cell-based; settings: 100 nM; 2 minutes
Method: as §1

[3] = test system: pAKT^S473; assay: pAKT S473 western blot in primary mouse adipocytes; assay type: cell-based
Method: Mouse and human pre-adipocytes culture and differentiation. Inguinal fat pads from 4-8 week old C57BL/6J male and female mice were dissected and mechanically digested for 10 min using spring scissors. Digested tissues were incubated in WAT isolation buffer (10 ml PBS, 2.4 U/ml dispase II (#04942078001, Roche), 10 mg/ml collagenase D (#11088858001, Roche) at 37° C. for 45 min. 20 mL growth media was added and the tissue suspension was filtered through a 100-μm cell strainer and centrifuged at 600×g for 5 min. The cell pellets were resuspended in 20 mL growth media, filtered through a 40-μm cell strainer, centrifuged at 600×g for 5 min, resuspended in 10 mL growth media, and plated in 10-cm collagen-coated dishes. The cells were cultured in growth media (DMEM/F-12 Glutamax, Thermo Fisher Scientific #10565018) supplemented with 10% fetal bovine serum. Two days post-confluency, differentiation was induced with growth media containing 1 μM rosiglitazone, 0.5 mM isobutylmethylxanthine, 1 μM dexamethasone, 5 μg/mL insulin. After two days, cells were re-fed with growth media containing 1 μM rosiglitazone and 5 μg/mL insulin. […]
Western blots and molecular analyses. […] For Western blotting of plasma samples, 1 μl of plasma was prepared in 2× sample buffer (Invitrogen) with reducing agent, boiled, and analyzed using Western blot against indicated antibody. […]

[4] = test system: human primary skeletal muscle cells; assay: 2-deoxy-3H-glucose uptake in human primary skeletal muscle cells; assay type: cell-based; settings: for induction of glucose uptake compared with control cells: 1 h
[5] = test system: primary mouse adipocytes; assay: 2-deoxy-3H-glucose uptake in primary mouse adipocytes; assay type: cell-based
Method: (§2) Mouse and human pre-adipocytes culture and differentiation. Inguinal fat pads from 4-8 week old C57BL/6J male and female mice were dissected and mechanically digested for 10 min using spring scissors. Digested tissues were incubated in WAT isolation buffer (10 ml PBS, 2.4 U/ml dispase II (#04942078001, Roche), 10 mg/ml collagenase D (#11088858001, Roche) at 37° C. for 45 min. 20 mL growth media was added and the tissue suspension was filtered through a 100-μm cell strainer and centrifuged at 600×g for 5 min. The cell pellets were resuspended in 20 mL growth media, filtered through a 40-μm cell strainer, centrifuged at 600×g for 5 min, resuspended in 10 mL growth media, and plated in 10-cm collagen-coated dishes. The cells were cultured in growth media (DMEM/F-12 Glutamax, Thermo Fisher Scientific #10565018) supplemented with 10% fetal bovine serum. Two days post-confluency, differentiation was induced with growth media containing 1 μM rosiglitazone, 0.5 mM isobutylmethylxanthine, 1 μM dexamethasone, 5 μg/mL insulin. After two days, cells were re-fed with growth media containing 1 μM rosiglitazone and 5 μg/mL insulin. Cells were fully differentiated after 6-8 days. For ISM1 knockdown or overexpression in primary adipocytes using adenovirus, 500 μL crude virus was mixed with 500 μL fresh growth media containing 1 μM rosiglitazone and 5 μg/mL insulin was added to each well at day 2 of differentiation. At day 4, virus-containing media was removed and 500 μL fresh growth media without stimulators was added to each well. SGBS cells were differentiated as described previously (Fischer-Posovszky et al., 2008; Wabitsch et al., 2001). Briefly, cells were cultured in growth media DMEM/F-12 Glutamax, supplemented with 10% fetal bovine serum, 33 uM biotin, and 17 uM pantothenate. Two days post confluency, differentiation was induced with serum-free DMEM/F12 media containing 33 uM biotin, 17 uM pantothenate, 0.01 mg/ml transferrin, 20 nM insulin, 100 nM cortisol, 0.2 nM triiodothyronine, 25 nM dexamethasone, 0.25 mM isobutyl methylxanthine, and 2 μM rosiglitazone. After four days, cells were re-fed with growth media containing 0.01 mg/ml transferrin 20 nM insulin, 100 nM cortisol, 0.2 nM triiodothyronine. Cells were fully differentiated after day 8-10.
(§3) Glucose uptake. Glucose uptake was performed as previously described (You et al., 2017). Briefly, 2-Deoxy-d-[2,6-3H]-glucose was purchased from PerkinElmer NEN radiochemicals. Fully differentiated adipocytes were washed with KRH buffer and starved in 0.5% BSA in KRH buffer for 4 h. Indicated concentrations of insulin or ISM1 were added at indicated time points. Cells were treated with a mixture of 500 μM 2-deoxy-D-glucose and 1.71 μCimL^−1 2-Deoxy-D-[1,2-3H (N)]-glucose for another 10 min followed by three washes using ice cold KRH buffer containing 200 mM glucose. The passive glucose uptake in the presence of 50 uM CytoB was less than 12% of the total glucose uptake. Cells were solubilized in 1% SDS and radioactivity was measured by liquid scintillation counting.

[6] = Observation of hypoglycemia in overexpression or pharmacological administration studies; assay type: in vivo, mouse; settings: overexpression or pharmacological administration of ISM1
[7] = test system: IGF-I-Receptor β Tyr1135/1136 or Insulin receptor Tyr1150/1151; assay: Western blot of phosphorylated insulin and IGF receptors in 3T3-F442A cells; assay type: cell-based; settings: 100 nM; 2 minutes
Method: as §1

[8] = test system: human SGBS adipocytes; assay: 2-deoxy-3H-glucose uptake in human SGBS adipocytes; assay type: cell-based
Method: as §2, §3

[9] = test system: pAKT^S473; assay: pAKT S473 western blot in human SGBS adipocytes and human primary skeletal muscle cells; assay type: cell-based
Method: as §1

[10] = test system: GLUT4; assay: GLUT4 translocation to the plasma membrane in primary adipocytes (immunostaining, fractionation); assay type: cell-based, mouse; settings: 100 nM
Method: Biochemical analyses. Plasma insulin levels were measured using the Ultra-Sensitive Mouse Insulin ELISA kit (Crystal Chem Inc #90080). Plasma triglycerides were measured with Infinity triglyceride measurement kit (Thermo #TR22421) and tissue triglycerides were measured with a Triglyceride Colorimetric Assay Kit (Cayman #10010303). Lipolysis was measured in day 5 differentiated adipocytes after 4 hours of protein treatment using a glycerol release assay according to the protocol provided by the manufacturer (Abcam #ab133130). Plasma membrane protein extractions were performed according to the manufacturer's protocol (Abcam #ab65400).
Immunocytochemistry. Primary mouse preadipocytes were seeded onto collagen-coated 22 mm×22 mm coverslips and differentiated using the method above. On day 8, differentiated adipocytes were washed with PBS and starved in 0.5% BSA in KRH buffer (50 mM HEPES, 136 mM NaCl, 1.25 mM MgSO4, 1.25 mM CaCl2, 4.7 mM KCl, pH 7.4) for 3.5 h. Cells were treated with insulin or ISM1 for 30 min, followed by three washes with cold PBS. Cells were fixed with 4% PFA in PBS for 15 min at room temperature. After blocking with 2% BSA, 5% goat serum, 0.2% Triton-X in PBS for 1 hr, cells were incubated with diluted primary antibody at 4° C. overnight. The next day, cells were washed and incubated with secondary antibody on ice for 1 hr. Cells were imaged using confocal microscope (Leica TCS SP8). Hoechst (#33342, thermo fisher) was used as counterstain.

[11] = insulin 1 nM up to 100 nM with 25 nM or 50 nM ISM1

B1: ISM1: recombinant mouse ISM1 protein with a C-terminal myc-his tag generated in mammalian HEK 293 Expi cells (protein, UniProt A2ATD1 30-454, looked up)
Isthmin-1: SDRQDAAAGNNNLNLESDSTSETSFPLSKEAPEEHQVVHQPFPRQRFPPETGHPSLQRDGPRSFLLDLPNFPDLSKADINGQNPNIQVTIEVVDGPDSEAEKDQHPENKPSWSLPAPDWRAWWQRSLSLARTNSGDQDDKYDSTSDDSNFLSVPRGWDRPAPGHRTFETKEQPEYDSTDGEGDWSLWSVCSVTCGNGNQKRTRSCGYACIATESRTCDRPNCPGIEDTFRTAATEVSLLAGSEEFNATKLFEVDMDSCERWMSCKSEFLKKYMHKVINDLPSCPCSYPTEVAYSTADIFDRIKRKDFRWKDASGPKEKLEIYKPTARYCIRSMLSLESTTLAAQHCCYGDNMQLITRGKGAGTPNLISTEFSAELHYKVDVLPWIICKGDWSRYNEARPPNNGQKCTESPSDEDYIKQFQEAREY
modifications: C-terminal myc-His tag
notes: recombinant mouse ISM1 protein with a C-terminal myc-his tag generated in mammalian HEK 293 Expi cells
[1]; 100 nM, 5 min
  pAKT^S473 bioactivity compared with commercially available ISM1 protein (R&D systems): comparable bioactivities
  top hit of phosphokinase array (43 proteins): phosphorylated protein kinase B (PKB)/AKT at S473
[1]; increasing doses, 5 min
  dose at which dose-dependent increase in pAKT^S473 phosphorylation starts: 50 nM
[1]; [11]
  AKT activity of ISM1 combined with insulin: additional effect
  potentiation of insulin on AKT activity: no evidence of potentiation
[2]
  tyrosine phosphorylation of proteins: induces phosphorylation of tyrosine residues on proteins >100 kDa in size
[3]; differentiated primary mouse brown adipocytes
  pAKT^S473 induction: induced pAKT^S473
[3]; white adipocytes
  pAKT^S473 induction: induced pAKT^S473
[4]; 50 nM
  induction of glucose uptake compared with control cells: 5 fold
[4]; 200 nM
  induction of glucose uptake compared with control cells: 7 fold
[4]; human skeletal muscle cells
  effect on glucose uptake relative to that of insulin: 70%
[5]; 100 nM ISM1 in cells treated with 50 nM insulin, 1 h
  glucose uptake when added to insulin: further increased insulin-induced uptake
[5]; 100 nM, absence of insulin, across multiple experiments
  increase in glucose uptake: around 1.5 fold
[5]; 24 h vs 4 h protein treatment, 100 nM
  desensitization of glucose uptake on prolonged treatment: does not lead to desensitization
[5]; primary mouse adipocytes
  effect on glucose uptake relative to that of insulin: < 50%
[6]
  hypoglycemia: do not observe hypoglycemia
[7]
  IGF-R/IR phosphorylation: no phosphorylation
[8]; SGBS cells
  effect on glucose uptake relative to that of insulin: 50-100%
[8]; [3H]-2-deoxy-glucose, starting from 20 nM, 30 minutes
  increase in glucose uptake: 1.5 fold
[8]; doses ranging from 10 nM to 200 nM
  concentration from which glucose uptake is increased: 20 nM
[9]; human SGBS adipocytes
  pAKT^S473 induction: induced pAKT^S473
[9]; human primary skeletal muscle cells (HSMC), 100 nM, 5 min
  pAKT^S473 induction: induced pAKT^S473
[10]; 4 h
  GLUT4 in plasma membrane fraction (biochemical fractionation): translocation of GLUT4 to the plasma membrane
[10]; compared with control cells
  GLUT4 at cell surface (immunostaining, confocal microscopy): higher levels of GLUT4 at cell surface
